Source: patent US20260226110A1

Target: single antigen M1 peptide segment of monkeypox virus (monkeypox virus isolate MPXV_USA_2022_MA001) (UniProt M1LBP0)
UniProt M1LBP0, sequence (M1LBP0 1-181 limits assumed): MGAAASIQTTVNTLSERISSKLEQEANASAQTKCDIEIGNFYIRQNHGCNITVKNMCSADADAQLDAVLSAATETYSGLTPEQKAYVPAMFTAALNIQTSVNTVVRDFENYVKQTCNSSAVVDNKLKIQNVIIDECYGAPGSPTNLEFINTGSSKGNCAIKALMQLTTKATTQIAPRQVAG

## neutralizing antibody 7D11
  koff: 0.00476 s⁻¹
  kon: 1.44e+06 M⁻¹ s⁻¹
